Experimental data from paper PMC4267653, “DNA cleavage by CgII and NgoAVII requires interaction between N- and R-proteins and extensive nucleotide hydrolysis” (Nucleic Acids Research, 2014).

How the values were obtained:
[1] = target: R.CglI (containing a StrepII-tag), co-expressed with N.CglI (Corynebacterium glutamicum ATCC 13032); test: densitometry of SDS-PAGE; purified RN.CglI complex resolved by SDS/PAGE, molar ratio of the two bands
[2] = target: N.CglI (containing a His6-tag), co-expressed with R.CglI (Corynebacterium glutamicum ATCC 13032); test: SEC + other: SAXS; purified co-expressed RN.CglI complex; molecular weight close to the sum of the R.CglI and N.CglI dimers
[3] = target: R.CglI (containing a StrepII-tag), co-expressed with N.CglI (Corynebacterium glutamicum ATCC 13032); test: as above
[4] = target: R.CglI (Corynebacterium glutamicum ATCC 13032)
[5] = target: N.CglI (Corynebacterium glutamicum ATCC 13032); test: SAXS; full-length R- and N-proteins in 20 mM Tris-HCl pH 8.0, 400 mM KCl, 0.1 mM EDTA, 1 mM DTT; molecular weight from scattering data (MoW)
[6] = target: N.CglI (Corynebacterium glutamicum ATCC 13032); test: SEC; gel filtration of single proteins and domains, Superdex 200 HR, room temperature, 20 mM Tris-HCl pH 8.0, 300 mM NaCl, 5 mM 2-mercaptoethanol; 20 μM (monomer) loading concentration
[7] = target: N.CglI isolated Z1 domain (Corynebacterium glutamicum ATCC 13032); test: as above
[8] = target: N.CglI isolated Z1-C domain (Corynebacterium glutamicum ATCC 13032); test: as above
[9] = target: N.CglI-DEAD-Z1 domain (Corynebacterium glutamicum ATCC 13032); test: as above
[10] = target: R.CglI (Corynebacterium glutamicum ATCC 13032); test: SAXS; full-length R- and N-proteins in 20 mM Tris-HCl pH 8.0, 400 mM KCl, 0.1 mM EDTA, 1 mM DTT; molecular weight from scattering data (MoW)
[11] = target: R.CglI (Corynebacterium glutamicum ATCC 13032); test: SEC; gel filtration of single proteins and domains, Superdex 200 HR, room temperature, 20 mM Tris-HCl pH 8.0, 300 mM NaCl, 5 mM 2-mercaptoethanol; 20 μM (monomer) loading concentration
[12] = target: R.NgoAVII (Neisseria gonorrhoeae FA1090); test: SAXS; full-length R- and N-proteins in 20 mM Tris-HCl pH 8.0, 400 mM KCl, 0.1 mM EDTA, 1 mM DTT; molecular weight from scattering data (MoW)
[13] = target: R.NgoAVII (Neisseria gonorrhoeae FA1090); test: SEC; gel filtration of single proteins and domains, Superdex 200 HR, room temperature, 20 mM Tris-HCl pH 8.0, 300 mM NaCl, 5 mM 2-mercaptoethanol; 20 μM (monomer) loading concentration
[14] = system: R.CglI (Corynebacterium glutamicum ATCC 13032); test: EMSA; conditions: no metal, 0.1 mM EDTA; EMSA: 1 nM 33P-DNA, 1-500 nM protein monomer, 40 mM Tris-acetate pH 8.3 (25°C), 0.1 mM EDTA (NgoAVII: 5 mM Ca-acetate instead), 0.1 mg/ml BSA, 10% glycerol …
[15] = system: R.CglI in RN.CglI complex;N.CglI (Corynebacterium glutamicum ATCC 13032;Corynebacterium glutamicum ATCC 13032); test: EMSA; conditions: EMSA: 1 nM 33P-DNA, 1-500 nM protein monomer, 40 mM Tris-acetate pH 8.3 (25°C), 0.1 mM EDTA (NgoAVII: 5 mM Ca-acetate instead), 0.1 mg/ml BSA, 10% glycerol …
[16] = target: the molecule itself; test: SEC; gel filtration of single proteins and domains, Superdex 200 HR, room temperature, 20 mM Tris-HCl pH 8.0, 300 mM NaCl, 5 mM 2-mercaptoethanol; 20 μM (monomer) loading concentration

Molecule: N.CglI (containing a His6-tag), co-expressed with R.CglI (enzyme)
- stoichiometry N (N.CglI per R.CglI) [1]: 0.75
- stoichiometry N [2]: 2
- stoichiometry N (N.CglI per R.CglI (2:2)) [3]: 1

Molecule: N.CglI (enzyme)
- ATP hydrolysis rate of N.CglI at saturating ATP (4 mM) and optimal concentrations of DNA and R.CglI (malachite green assay) [4]: 176 ATP/s
- stoichiometry N [5]: 2
- stoichiometry N [6]: 2

Molecule: N.CglI isolated Z1 domain (domain or fragment)
- stoichiometry N [7]: 2

Molecule: N.CglI isolated Z1-C domain (domain or fragment)
- stoichiometry N [8]: 2

Molecule: N.CglI-DEAD-Z1 domain (domain or fragment)
- stoichiometry N [9]: 2

Molecule: R.CglI (containing a StrepII-tag), co-expressed with N.CglI (enzyme)
- stoichiometry N [3]: 2

Molecule: R.CglI (enzyme)
- stoichiometry N [10]: 2
- stoichiometry N [11]: 2

Molecule: R.NgoAVII (enzyme)
- stoichiometry N [12]: 2
- stoichiometry N [13]: 2

Molecule: TACAATCGATAATAGCCGCCGTGCGAGCCCATT (double strand) [33 bp cognate duplex]
- Kd [14]: 9.2 nM
- Kd [15]: 1.9 nM

B1: R.CglI isolated PLD domain (domain or fragment)
chain: PLDKFFDKELKDTHHLDITVGYISEKSLQYLLLIAGTHPDLTITLTCGMHAREGMTAAQLHHARVLHDYLSDHDRGGVFVIPRLRYHGKIYLFHKNQHTDPIAYIGSANLSAIVPGYTSTFETGVILDPAPEDLVLH
- stoichiometry N [16]: 2
